Assay results reported in the DeepSol protein solubility set.

assay: soluble on expression in E. coli; label from the status in PepcDB or PDB records

Sequence	soluble on expression in E. coli
MAKEKEKLFSEFPPVSREAWIDKITADLKGVPFEKKLVWRTNEGFNVNPFYRREDIEDLKTTTSLPDEYPYVRSTRMHNEWLVRQDIVVGDNVAEANEKALDLLNKGVDSLGFYLKKVHINVDTLAALLKDIELTAVELNFNCCITRAADLLSAFSAYVKKVGADPNKCHGSVSYDPFKKQLVRGVSNPDWVKMTLPVMDAARELPAFRVLNVNAVNLSDAGAFITQELGYALAWGAELLDKLTDAGYKPEEIASRIKFNFGIGSNYFMEIAKFRAARWLWAQIVGSYGDQYKNETAKIHQHATTSMWNKTVFDAHVNLLRTQTETMSAAIAGVDSITVLPFDVTYQQSDDFSERIARNQQLLLKEECHFDKVIDPSAGSYYIETLTNSIGEEAWKLFLSVEDAGGFTQAAETASIQKAVNASNIKRHQSVATRREIFLGTNQFPNFTEVAGDKITLAQGEHDCNCVKSIEPLNFSRGASEFEALRLATEKSGKTPVVFMLTIGNLAMRLARSQFSSNFFGCAGYKLIDNLGFKSVEEGVDAALAAKADIVVLCSSDDEYAEYAPAAFDYLAGRAEFVVAGAPACMADLEAKGIRNYVHVKSNVLETLRAFNDKFGIR	not soluble
MGSDKIHHHHHHMKNLRLTLAVIAGKILIYISRLLGHQGTSLPGRIARKIYPRILRTLSTNIRREIVVITGTNGKTTTSNMLAEILQQQGYSLVHNRLGANMLSGITTAFIEKSDIYGSRRFDYALLETDEATVPLLLRETRPRLVLITNFFQDQLDRYGEMDHTIKLIQEAVKDQEIEMLLNADDPLTANFEAETGLKCRYYGFDGNSCDSNRSIDSREVRYCAFCGHPLEYEKYHYAQLGQYSCPQCHSCNPERDFTGQELEMSPDIELKVDGMALKSPYQGFHNAYNILAAVSLARLLGVEEENIKKAIASFQPQAGRMEAFFINGKRVVLALVKNPAALNQTLASLIYDPSRKNLFFALNDNAADGRDISWIWDADVELLEYENVMVEQIVCSGQRSGDIALRFKYAGFPQERIRIEAELPRAIELAVQGSAESSYILCSYTALFACQRILREMEKRSGAGEETEKAYQPQS	not soluble
MSMENFAQLLEESFTLQEMNPGEVITAEVVAIDQNFVTVNAGLKSESLIDVAEFKNAQGEIEVKVGDFVTVTIESVENGFGETKLSREKAKRAADWIALEEAMENGNILSGIINGKVKGGLTVMISSIRAFLPGSLVDVRPVKDTSHFEGKEIEFKVIKLDKKRNNVVVSRRAVLEATLGEERKALLENLQEGSVIKGIVKNITDYGAFVDLGGIDGLLHITDLAWRRVKHPSEVLEVGQEVEAKVLKFDQEKQRVSLGMKQLGEDPWSGLTRRYPQATRLFGKVSNLTDYGAFVEIEQGIEGLVHVSEMDWTNKNVHPSKVVQLGDEVEVMILEIDEGRRRISLGMKQCQANPWEEFAANHNKGDKISGAVKSITDFGVFVGLPGGIDGLVHLSDLSWTESGEEAVRKYKKGEEVEAVVLAIDVEKERISLGIKQLEGDPFGNFISVNDKGSLVKGSVKSVDAKGAVIALSDEVEGYLPASEFAADRVEDLTTKLKEGDEVEAVIVTVDRKNRSIKLSVKAKDAKESREALNSVNAAANANAGTTSLGDLLKAKLSGEQELEHHHHHH	not soluble
MEYQHWLREAISQLQASESPRRDAEILLEHVTGRGRTFILAFGETQLTDEQCQQLDALLTRRRDGEPIAHLTGVREFWSLPLFVSPATLIPRPDTECLVEQALARLPEQPCRILDLGTGTGAIALALASERPDCEIIAVDRMPDAVSLAQRNAQHLAIKNIHILQSDWFSALAGQQFAMIVSNPPYIDEQDPHLQQGDVRFEPLTALVAADSGMADIVHIIEQSRNALVSGGFLLLEHGWQQGEAVRQAFILAGYHDVETCRDYGDNERVTLGRYYQ	soluble
MGSDKIHHHHHHMPDAAGGVRVPHPPRPFDRPDRPAARLCRTQQLHPRVPPLERHLAPRLAGTAEPDRALKPQDKSLSKADPMTRLLLLEGNTADKRARGRELGVRSSSEIYAQAIAAHFPRIELDVLNGADEGEAIPHDRSWADYDGFVVTGSSLHAYDREFAVTNQIALVAQAAEHGLPIFGSCWGLQIAVMAAGGEVAYNPRGREVGFARKIALNDAGRAHPMFGAKQHVFDAPCIHYDEVVRMPDGATLLASNGHSLVQAAVIPLGQSEVWAVQYHPEFDLAQLVQLYTLYAADMIAQGFFSNEAELVAYRDKIARLAQDPTDAGLAWQLGIDADVLDPRQRAAEIIAWIESRVLNGT	not soluble
MKEEKRSSTGFLVKQRAFLKLYMITMTEQERLYGLKLLEVLRSEFKEIGFKPNHTEVYRSLHELLDDGILKQIKVKKEGAKLQEVVLYQFKDYEAAKLYKKQLKVELDRSKKLIEKALSDNF	soluble
MDLEEQKKAVIEKLIREGYIKSKRVIDALLKVPREEFLPEHLKEYAYVDTPLEIGYGQTISAIHMVGMMCELLDLKPGMKVLEIGTGCGYHAAVTAEIVGEDGLVVSIERIPELAEKAERTLRKLGYDNVIVIVGDGTLGYEPLAPYDRIYTTAAGPKIPEPLIRQLKDGGKLLMPVGRYLQRLVLAEKRGDEIIIKDCGPVAFVPLVGKEGFQG	soluble
MGSDKIHHHHHHMRENKVVYGLIGYGGMGRWHTEILSNVPEAVIGGIYDIKEEKREEAKAKGFSVYETEEAMLADSDIDVVLIATPNDCHKPIAIRAMHAGKNVISEKPVTLSSADLLEMEKVAKETGKLFTVHQNRRWDDDFLIIKKLVEEQKLGHVFRIESRVHGSRGIPGDWRKEKVHGGGMVLDWGVHLLDQILYMYGDRKIETVYASLTNITNQEVDDGFTAILTFEGGTEVLVEVGTNNYISLPRWYVLGKDGTAVIRDWQLTGEIIRKTGKTEETVIPVKTAAGLTKTMAPRREDTIVKEDLPKVSGDIADFHRNVVAVIRDGAEPEIKLFQVMRVMKLMEAIFQAAETKQVIEFQDQV	not soluble
TQEKRSYMEKLSDENGIISALAFDQRGALKRLMAQYQTQEPTIAQMEELKVLVAEELTPYASSMLLDPEYGLPAAKHLDKNAGLLLAYEKTGYDTTSTKRLPDCLVEWSAKRLKKQGADAVKFLLYYDVDGDEEVNQQKQAYIERIGSECKAEDIPFFLEILAYDETITDAASVEYAKVKPHKVLDAMKVFSDERFGIDVLKVEVPVNMKYVEGFGDGPIVHTQDQAANFFKQQDQATPLPYIYLSAGVSAKLFQDTLVFAKESGANFNGVLCGRATWAGSVKDYIEKGEAAARQWLRTEGFKNIDELNKVLKATATSWKE	not soluble
MGSDKIHHHHHHMPKHLYSLLVVNINMFEKEKEILAKRIAGEIVLSPDPGKTMRKWREIFGISQTELADYLGVSSSVISDYEGGRRKSPGASTIRKFVEALIEIDEKRGGNVIKAFSRTFSSEIPTSAILDIREFDIPVTVKDIVDAVKGEIVANPDLIDRKIYGYTVVDSIQAILEMSAEEFLKLYGWTTERALVFTKVTTGRSPMIAVRVQGLKPAMVVLHGVKRLDELAVKIAEKERVPLVVSKAENETELITGLRRLVTSI	not soluble
MATNRSRRLRKKLCVDEFQELGFELNFHYKEGVDADAVNAFMLRFIDQAIEANELTYGGCDEFGFVCLARRGSVNEEQRALIEAWLKQQPELASVEVGALVDAWYPEQPVLPKL	not soluble
MSGAFNNDGRGISPLIATSWERCNKLMKRETWNVPHQAQGVTFASIYRRKKAMLTLGQAALEDAWEYMAPRECALFILDETACILSRNGDPQTLQQLSALGFNDGTYCAEGIIGTCALSLAAISGQAVKTMADQHFKQVLWNWAFCATPLFDSKGRLTGTIALACPVEQTTAADLPLTLAIAREVGNLLLTDSLLAETNRHLNQLNALLESMDDGVISWDEQGNLQFINAQAARVLRLDATASQGRAITELLTLPAVLQQAIKQAHPLKHVEATFESQHQFIDAVITLKPIIETQGTSFILLLHPVEQMRQLMTSQLGKVSHTFAHMPQDDPQTRRLIHFGRQAARSSFPVLLCGEEGVGKALLSQAIHNESERAAGPYIAVNCELYGDAALAEEFIGGDRTDNENGRLSRLELAHGGTLFLEKIEYLAVELQSALLQVIKQGVITRLDARRLIPIDVKVIATTTADLAMLVEQNRFSRQLYYALHAFEITIPPLRMRRGSIPALVNNKLRSLEKRFSTRLKIDDDALARLVSCAWPGNDFELYSVIENLALSSDNGRIRVSDLPEHLFTEQATDDVSATRLSTSLSFAEVEKEAIINAAQVTGGRIQEMSALLGIGRTTLWRKMKQHGIDAGQFKRRV	soluble
MGSSHHHHHHSSGLVPRGSHMNTNSNTMVMNDANQAQITATFTKKILAHLDDPDSNKLAQFVQLFNPNNCRIIFNATPFAQATVFLQMWQNQVVQTQHALTGVDYHAIPGSGTLICNVNCKVRFDESGRDKMGQDATVPIQPNNTGNRNRPNDMNKPRPLWGPYFGISLQLIIDDRIFRNDFNGVISGFNYNMVYKPEDSLLKI	soluble
MGSSHHHHHHSSGRENLYFQGHMFFTDWEGPWILTDFALELCMAVFNNARFFSNLSEYDDYLAYEVRREGYEAGYTLKLLTPFLAAAGVKNRDVERIAELSAKFVPDAEKAMATLQERWTPVVISTSYTQYLRRTASMIGVRGELHGTEVDFDSIAVPEGLREELLSIIDVIASLSGEELFRKLDELFSRSEVRKIVESVKAVGAGEKAKIMRGYCESKGIDFPVVVGDSISDYKMFEAARGLGGVAIAFNGNEYALKHADVVIISPTAMSEAKVIELFMERKERAFEVLSAVSIPETEIYIMENSDFGEVLEKSKRMRVRLRGLAGELGGS	soluble
MWSCPTLNAPRAAQKWLPVRATPHLCVLHMSRLMLSSTLIDELSYVRKDQLETSALFELIAHRYERHSIAITANEPFSGWSDAMTVAAIDRLVHHSTIIEMNGESYRKRAAVARGASTQNANDEPEDPPNRSSLEHHHHHH	not soluble
MAHHHHHHMFRGRIELIIGPMFAGKTTELMRRVKREIHARRSCFVIKYSKDTRYDEHNVASHDQLMLRAQAAVSQLTEVRDTWKRFDVLAIDEGQFFSDLVDFCNTAADAGKVVMVSALDGDYRRKPFGQICELVPYCEAVDKLTAVCMMCHEQPACFTRRTVNVEQQELIGGADMYIATCRECYSKQQLPSIEEMRTQRMAIKEVEKRYLGLSDKRATASPQTPEKPAGGWCTKAGVATLPTMVKEGAASSGASAGMKSGRGLCEMQAFTTETPKYQRVEPACTASAASSE	soluble
MGSDKIHHHHHHMNNTIPRWRGFNLLEAFSIKSTGNFKEEDFLWMAQWDFNFVRIPMCHLLWSDRGNPFIIREDFFEKIDRVIFWGEKYGIHICISLHRAPGYSVNKEVEEKTNLWKDETAQEAFIHHWSFIARRYKGISSTHLSFNLINEPPFPDPQIMSVEDHNSLIKRTITEIRKIDPERLIIIDGLGYGNIPVDDLTIENTVQSCRGYIPFSVTHYKAEWVDSKDFPVPEWPNGWHFGEYWNREKLLEHYLTWIKLRQKGIEVFCGEMGAYNKTPHDVVLKWLEDLLEIFKTLNIGFALWNFRGPFGILDSERKDVEYEEWYGHKLDRKMLELLRKY	soluble
MDAENRVIINVGGIRHETYKATLKKIPATRLSRLTEGMLNYDPVLNEYFFDRHPGVFAQIINYYRSGKLHYPTDVCGPLFEEELEFWGLDSNQVEPCCWMTYTAHRDTQETLAVL	soluble
MALKPTIYKFRIALSDMNNDYYDSKNLTIALHPSEKPQRMLARILAFCLNAQKDLEFTKGLSTTEEPDLWHVADDQSITHWIEIGEPEPDRIKKASRLAKQVKVYTYNTKAPVWWEKMSGKFSMLPVSVESFDYDAIDMICQHLDRGTNLSVMITGTSIFVDVNDQHVEVTVKELQSHDAP	not soluble
